The results in this text go back to patent publication US20260250410A1, “ANTIBODY AND USE THEREOF” (SICHUAN HUIYU PHARMACEUTICAL CO., LTD., priority 2022, published 2026).

Assay [1] relates to MDA-MB-231 cells. In words: Endocytosis capacity of murine monoclonal antibody (flow cytometry internalization). Type of assay: cell-based, human. The settings on record: antibody 1.5 μg/mL; for Internalization MDA-MB-231 (%) 2 h: MDA-MB-231, 2 h at 37° C.; for Internalization MDA-MB-231 (%) 0.5 h: MDA-MB-231, 0.5 h at 37° C.; for Internalization MDA-MB-231 (%) 1 h: MDA-MB-231, 1 h at 37° C. The procedure: (§1) The endocytosis capacity of the antibody was detected for 0.5 to 2 hours. MDA-MB-231 and PC3 cells were subjected to digestion with 5 mM EDTA, and plated at 4×10^4 cells/well after cell counting. After adding an Fc blocker (Human TruStain FcX™, Biolegend, 422302) and blocking at room temperature for 10 mins, a test antibody (1.5 μg/mL) was added, and the mixture was incubated at 4° C. for 30 mins, centrifuged, and washed twice with PBS+2% FBS, then the cells were divided into four equal portions (labeled as 0 h, 0.5 h, 1 h, 2 h), cells labeled as 0.5 h, 1 h, 2 h time points were added to a cell culture medium at 200 µL/well, and cultured at 37° C. for 0.5 h, 1 h, 2 h, respectively. Cells at 0 h point were centrifuged to remove supernatant, a secondary antibody (PE anti-human IgG Fc Antibody, Biolegend, 410708) was added, and the mixture was incubated at 4° C. for 30 mins, centrifuged, and washed twice with PBS+2% FBS, and detection was performed using a flow cytometer. After incubation of cells labeled as 0.5 h, 1 h, and 2 h points at 37° C. was completed, a secondary antibody was added (in the same steps as those at 0 h point), Geo-MFI of the signal under the same voltage was collected as detection signal at 0 h, and antibody internalization rate was calculated according to the following equation: Internalization (%)=(Geo-MFI (0 h)-Geo-MFI (0.5, 1, 2 h))/Geo-MFI (0 h)×100%.
(In general: A flow cytometer gives signals particle by particle.)

Assay [2] concerns PC3 cells. The assay is described as above. Type of assay: cell-based, human. The settings on record: antibody 1.5 μg/mL; for Internalization PC3 (%) 2 h: PC3, 2 h at 37° C.; for Internalization PC3 (%) 0.5 h: PC3, 0.5 h at 37° C.; for Internalization PC3 (%) 1 h: PC3, 1 h at 37° C. The protocol:
as §1

B1: 1CP-061: anti-CDCP1 murine monoclonal antibody (hybridoma); VH SEQ ID NO: 262, VL SEQ ID NO: 312 (antibody, V domains shown)
VH: EVQLKESGAELVRPGASVKLSCKASGYTFTSYWINWVRQRPGQGLEWIGNIYPSDSYTNYNQKFKDKATLTVDKSSSTAYMQLSSPTSEDSAVYYCTRCLRRRDWYFDVWGQGTTVTVSS
VL: DVVMTQTPASLAVSLGQRATISCRASESVDYSGYSFMHWYQQKPGQPPKLLIYRASNLESGIPARFSGSGSRTDFTLTINPVEADDVATYYCQQSNEDPYTFGGGTKLEIK
modifications: 1CP-061 heavy chain variable region; 1CP-061 light chain variable region
With B1, in assay [1], the “Internalization MDA-MB-231 (%) 2 h” value amounted to 42.68%. For the same molecule, in assay [2], the “Internalization PC3 (%) 2 h” value is given as 28.00%.

B2: 1CP-062: anti-CDCP1 murine monoclonal antibody (hybridoma); VH SEQ ID NO: 264, VL SEQ ID NO: 314 (antibody, V domains shown)
VH: EVKLVESGPGLVAPSQSLSITCTVSGFSLTTYGVHWVRQPPGKGLEWLVVIWSDGNTTYNSALKSRLSINKDNSKSQVFLKMNSLQTDDTAMYYCAKNYRNYDYAMDYWGQGTTVTVSS
VL: DIVMTQTPASLAVSLGQRATISCRASESVDSYGNSFMHWYQQKPGQPPKLLIYRASNLESGIPARFSGSGSRTDFTLTINPVEADDVATYYCQQSNEDPYTFGGGTKLEIK
modifications: 1CP-062 heavy chain variable region; 1CP-062 light chain variable region
For B2, the “Internalization MDA-MB-231 (%) 2 h” value in assay [1] is reported as 59.61%. In assay [2], the “Internalization PC3 (%) 2 h” value stood at 66.74%.

B3: 6G9: anti-CDCP1 murine monoclonal antibody (hybridoma); VH SEQ ID NO: 244, VL SEQ ID NO: 295 (antibody, V domains shown)
VH: EVQLKESGPGLVKPSQSLSLTCTVTGYSITSDYAWNWIRQFPGNKLEWMGYIIYSGRTSYNPSLKSRISITRDTSKNQFFLQLNSVTTEDTATYYCAREDYYGGSYGGLDYWGQGTTVTVSS
VL: DIVMTQSPLSLPVSLGDQASISCRSSQSIVHSNGNTYLEWYLQKPGQSPKLLIYKVSNRFSGVPDRFSGSGSGTDFTLKISRVEAEDLGVYYCFQGSHVPWTFGGGTKLEIK
modifications: 6G9 heavy chain variable region; 6G9 light chain variable region
As to B3, in assay [1], the “Internalization MDA-MB-231 (%) 0.5 h” value is listed as 75.76%, the “Internalization MDA-MB-231 (%) 1 h” value stood at 86.81% and the “Internalization MDA-MB-231 (%) 2 h” value was 88.89%. For the same molecule, in assay [2], the “Internalization PC3 (%) 0.5 h” value was 60.58%, the “Internalization PC3 (%) 1 h” value is on record as 77.88% and the “Internalization PC3 (%) 2 h” value came to 87.67%.

B4: 3F1A11-H-12: anti-CDCP1 murine monoclonal antibody (hybridoma); VH SEQ ID NO: 248, VL SEQ ID NO: 296 (antibody, V domains shown)
VH: EVKLVESGPGLVKPSQSLSLTCSVTGYSITSGYYWNWIRQFPGNKLDWMGYITYDDSHYYNPSLKDRLSITRDTSKNQFFLKLNSVTAEDTATYFCARGNYYANYPHAMDYWGQGTTVTVSS
VL: EIVLTQSPLSLPVSLGDQASISCRSRQTLVHTNGNTYLDWYLQKPGQSPKLLIYKVSIRFSGVPDRFSGSRSGTDFTLKISRVEAEDLGIYYCFQGSHVPWTFGGGTKLEIK
modifications: 3F1A11-H-12 heavy chain variable region; 3F1A11/3F1A11-H-12 light chain variable region
In the case of B4, the “Internalization MDA-MB-231 (%) 2 h” value in assay [1] is reported as 37.57%. Also, in assay [2], the “Internalization PC3 (%) 2 h” value came out at 33.83%.

B5: 3F1A11: anti-CDCP1 murine monoclonal antibody (hybridoma); VH SEQ ID NO: 245, VL SEQ ID NO: 296 (antibody, V domains shown)
VH: EVKLVESGPGLVKPSQSLSLTCTVTGYSITSDYAWNWIRQFPGNKLEWMGYISYNTYTSYNPSLKSRISVTRDTSKNQFFLQLKSVTIEDTATYFCAGGDYYGTGAVDYWGQGTTVTVSS
VL: EIVLTQSPLSLPVSLGDQASISCRSRQTLVHTNGNTYLDWYLQKPGQSPKLLIYKVSIRFSGVPDRFSGSRSGTDFTLKISRVEAEDLGIYYCFQGSHVPWTFGGGTKLEIK
modifications: 3F1A11 heavy chain variable region; 3F1A11/3F1A11-H-12 light chain variable region
For B5, the “Internalization MDA-MB-231 (%) 2 h” value in assay [1] is 38.10%. The “Internalization PC3 (%) 2 h” value in assay [2] worked out at 51.76%.

B6: 1CP-063: anti-CDCP1 murine monoclonal antibody (hybridoma); VH SEQ ID NO: 263, VL SEQ ID NO: 313 (antibody, V domains shown)
VH: EVNLKESGPELVKPGASVRISCKASGYTFTSYYIHWVKQRPGQGLEWIGWIYPGNVNSKYNEKFKGKVTLTADKSSITAYMQLSSLTSEDSAVYFCAREDYGHYYAMDYWGQGTTVTVSS
VL: DIVMTQSPSSMYASLGERVTITCKASQDIKSYLSWYQQKPWKSPKTLIYYATSLADGVPSRFSGSGSGQDYSLTISSLESDDTATYYCLQYGESPWTFGGGTKLEIK
modifications: 1CP-063 heavy chain variable region; 1CP-063 light chain variable region
Regarding B6, the “Internalization MDA-MB-231 (%) 2 h” value in assay [1] worked out at 49.71%. Further, the “Internalization PC3 (%) 2 h” value in assay [2] is reported as 62.68%.

B7: 5G9: anti-CDCP1 murine monoclonal antibody (hybridoma); VH SEQ ID NO: 241, VL SEQ ID NO: 292 (antibody, V domains shown)
VH: EVQLQQSGTVLARPGASVKMSCKASGYIFLNYWMHWVKQRPGQGLEWIGGIYPGNTDTTYNQKFKGKAKVTAVTSATTAYMELSSLTNEDSAVYYCIRYDYDRGMDYWGQGTTVTVSS
VL: DIVMTQAPAIMSASPGEKVTISCSASSSVSYIYWYQQKPGSSPKPWIYRTSNLASGVPARFSGSGSGTSYSLTISSMEAEDAATYYCQQYHSYPYTFGGGTKLEIK
modifications: 5G9 heavy chain variable region; 5G9 light chain variable region
As to B7, in assay [1], the “Internalization MDA-MB-231 (%) 0.5 h” value is recorded as 0.00%, the “Internalization MDA-MB-231 (%) 1 h” value worked out at 0.00% and the “Internalization MDA-MB-231 (%) 2 h” value is reported as 0.00%. Further, in assay [2], the “Internalization PC3 (%) 0.5 h” value worked out at 0.00%, the “Internalization PC3 (%) 1 h” value is given as 0.00% and the “Internalization PC3 (%) 2 h” value is given as 0.00%.

B8: 24G4: anti-CDCP1 murine monoclonal antibody (hybridoma); VH SEQ ID NO: 261, VL SEQ ID NO: 311 (antibody, V domains shown)
VH: EVQLKESGAELVRSGASVKLSCTASGFNIKDYYIHWVKQRPEQGLEWIGWIDPENGDTEYVPKFQGKATLTADTSSNTAYLQLNSLTSEDTAVYYCNPCGTGPWFAYWGQGTTVTVSS
VL: DIQMTQSPAILSASPGEKVTMTCRASSSVSYIHWYQQKPGSSPDPWIYATSFLASGVPGRFSGSGSGTSYSLTISRLEAEDAATYYCQQWNSSPFTFGGGTKLEIK
modifications: 24G4 heavy chain variable region; 24G4 light chain variable region
Turning to B8, in assay [1], the “Internalization MDA-MB-231 (%) 0.5 h” value was found to be 55.98%, the “Internalization MDA-MB-231 (%) 1 h” value was determined as 70.68% and the “Internalization MDA-MB-231 (%) 2 h” value turned out to be 83.23%. In assay [2], the “Internalization PC3 (%) 0.5 h” value is reported as 46.97%, the “Internalization PC3 (%) 1 h” value came to 67.07% and the “Internalization PC3 (%) 2 h” value came to 82.61%.

B9: 1CP-067: anti-CDCP1 murine monoclonal antibody (hybridoma); VH SEQ ID NO: 265, VL SEQ ID NO: 315 (antibody, V domains shown)
VH: EVQLKESGGGLVKPGGSLKLSCTASGFTFSVYGMSWVRQTPEKRLEWVATLSGGSNYTYYSDSVKGRFTISRDTGKNNLYLQMSSLSSDDTALYYCATEDGLIGTWGDYWGQGTTVTVSS
VL: DIVMTQAAFSNPVTLGTSASISCRSTKSLLHSNGITYLYWFLQKPGQSPQLLIYQMSNLASGVPDRFSSSGSGTDFTLRISRVEAEDVGVYYCAQNLELPFTFGGGTKLEIK
modifications: 1CP-067 heavy chain variable region; 1CP-067 light chain variable region
As for B9, the “Internalization MDA-MB-231 (%) 2 h” value in assay [1] is 69.09%. Further, the “Internalization PC3 (%) 2 h” value in assay [2] is recorded as 72.66%.

B10: 1CP-069: anti-CDCP1 murine monoclonal antibody (hybridoma); VH SEQ ID NO: 266, VL SEQ ID NO: 316 (antibody, V domains shown)
VH: EVQLQQSGGGLVKPGGSLKLSCTASGFTFSVYGMSWVRQTPEKRLEWVATLSGGDNYTYYTDSVKGRFTISRDTAKNNLYLQMSSLRSEDTALYFCATEDGLIGTWGDYWGQGTTVTVSS
VL: DIVMTQAAFSNPVTLGTSASISCRSTKSLLHSNGITYLYWYLQKPGQSPQLLIYQMSNLASGVPDRFSSSGSGTDFTLRISRVEAEDVGVYYCAQNLELPFTFGGGTKLEIK
modifications: 1CP-069 heavy chain variable region; 1CP-069 light chain variable region
On to B10, for which, in assay [1], the “Internalization MDA-MB-231 (%) 2 h” value is given as 73.58%. Moreover, the “Internalization PC3 (%) 2 h” value in assay [2] is reported as 73.92%.
